Experimental data taken from paper PMC10515491, “Intrinsically Disordered Flanking Regions Increase the Affinity of a Transcriptional Coactivator Interaction across Vertebrates” (Biochemistry, 2023).

T1: D. rerio NCBD (nuclear coactivator binding domain of CBP), Trp variant (D. rerio)
T1 chain: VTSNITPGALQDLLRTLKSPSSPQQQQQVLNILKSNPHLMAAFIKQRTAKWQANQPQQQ

T2: C. milii NCBD (nuclear coactivator binding domain of CBP), Trp variant, first four residues truncated (C. milii)
T2 chain: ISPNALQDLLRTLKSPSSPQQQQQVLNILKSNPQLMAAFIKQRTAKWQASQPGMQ

T3: S. purpuratus NCOA N-CID-C (CID with N- and C-terminal flanking regions) (S. purpuratus, UniProt A0A7M7N2F3 1037-1156)
T3 construct: Gly-Ser remains at the N-terminus after thrombin cleavage; the Uniprot entry W4YZZ7 was withdrawn; annotated in NCBI as neurogenic protein mastermind; also called long version; source: expression construct ordered from Genscript; not shown: 6 His-tagged lipo domain, N-terminal, cleaved
T3 sequence: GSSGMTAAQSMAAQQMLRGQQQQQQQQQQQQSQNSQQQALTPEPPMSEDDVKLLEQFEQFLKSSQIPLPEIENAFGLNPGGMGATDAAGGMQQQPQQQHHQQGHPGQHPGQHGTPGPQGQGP

T4: H. sapiens NCOA1 N-CID-C (H_sapiens_NCOA1_N-CID-C_885-1004) (H. sapiens, UniProt Q15788 885-1004)
T4 construct: Gly-Ser remains at the N-terminus after thrombin cleavage; also called CID with flanking regions; Src1; not shown: His6, N-terminal, cleaved; lipo domain, N-terminal, cleaved
T4 sequence: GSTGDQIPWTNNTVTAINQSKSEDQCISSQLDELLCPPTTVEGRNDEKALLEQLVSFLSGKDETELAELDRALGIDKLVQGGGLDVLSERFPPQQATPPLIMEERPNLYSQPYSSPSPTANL

B1: D. rerio NCOA1 CID (minimal region) (domain or fragment)
chain: GSEGRNDEKALLEQLVTFLSHTDESELAELDRALGIDKIVQSGC
B2: D. rerio NCOA2 N-CID-C (CID with N- and C-terminal flanking regions) (domain or fragment)
chain: GPGSPPNQTAPWPDSVMPIEPVPFGNQSSSMYGGSQEDVLCPPASEGPADEGALLSQLYSALKDFDGLEEIDRALGIPALVGQAQPVEQDQFPGQDPSMMMDQKPPMYGQQQYASSPANMQQAG
B3: D. rerio NCOA2 CID (minimal region) (domain or fragment)
chain: GPGSASEGPADEGALLSQLYSALKDFDGLEEIDRALGIPALVGQAQ
B4: D. rerio NCOA3 N-CID-C (CID with N- and C-terminal flanking regions) (domain or fragment)
chain: GSPPQSPSWPDSGMGMEGPPSANRLPINSPLDELLAPPSTSEGQSDERALLDQLDSLLNNTDVIALEEIDRALGIPDLINQGHSSDQPPPSDPFSGPCLGPDSSMGMEPPKAMYGQGYPGPP
B5: D. rerio NCOA3 CID (minimal region) (domain or fragment)
chain: GSEGQSDERALLDQLDSLLNNTDVIALEEIDRALGIPDLINQGH
B6: D. rerio NCOA1 N-CID-C (CID with N- and C-terminal flanking regions) (domain or fragment)
chain: GSEPMTFDNSLANQTQAPLSSPQEQCVPCPLDEMLCPPTTPEGRNDEKALLEQLVTFLSHTDESELAELDRALGIDKIVQSGCLEPVTQTPFPQSQPPTPVPLDPKLPSYPSQFPTSPSQFP
B7: C. milii NCOA3 CID (minimal region) (domain or fragment)
chain: EAQSDEKALLDQLDTLLSNADEMGLEEIDRALGIPDLISQVQ
B8: C. milii NCOA3 N-CID-C (CID with N- and C-terminal flanking regions) (domain or fragment)
chain: QTTSWSDNVLQMEQVHSGGQGRQPFGGSLDDLLCPPTTAEAQSDEKALLDQLDTLLSNADEMGLEEIDRALGIPDLISQVQPLEAHADQFSVQDTALMLEQKAMYGQQFNSQAGPMQGCY
B9: H. sapiens NCOA1 CID (H_sapiens_NCOA1_CID_924-965) (domain or fragment)
chain: GSEGRNDEKALLEQLVSFLSGKDETELAELDRALGIDKLVQGGG
notes: Gly-Ser remains at the N-terminus after thrombin cleavage; also called Src1; not shown: His6, N-terminal, cleaved; lipo domain, N-terminal, cleaved
B10: H. sapiens NCOA1 N-CID-C (CID with N- and C-terminal flanking regions) (domain or fragment)
chain: T4 sequence
notes: Gly-Ser remains at the N-terminus after thrombin cleavage; also called NCOA1 (Src1); source: expression construct ordered from Genscript; not shown: 6 His-tagged lipo domain, N-terminal, cleaved
B11: S. purpuratus NCBD (nuclear coactivator binding domain of CBP), wild type (domain or fragment)
chain: GSQRNNAPQQALQQLLQTLKSPHSPQQQKQVLTILKSNPQLMAAFIKQRSEHQQRMQQQQQ
notes: Gly-Ser remains at the N-terminus after thrombin cleavage; CBP, S. purpuratus (purple sea urchin), NCBD domain, residues 2316-2374 of Uniprot A0A7M7HNR9; the Trp variant is told only for the stopped-flow experiments; source: expression construct ordered from Genscript; not shown: 6 His-tagged lipo domain, N-terminal, cleaved
B12: H. sapiens CBP NCBD domain, Trp variant (H_sapiens_NCBD 2058-2116, Tyr2108 to Trp) (domain or fragment)
chain: GSPPRSISPSALQDLLRTLKSPSSPQQQQQVLNILKSNPQLMAAFIKQRTAKWVANQPGMQ
notes: Gly-Ser remains at the N-terminus after thrombin cleavage; Trp introduced at Tyr2108 for the kinetic studies; not shown: His6, N-terminal, cleaved; lipo domain, N-terminal, cleaved

Legend:
[1] = biological target: S. purpuratus NCBD (nuclear coactivator binding domain of CBP), wild type (S. purpuratus); experiment: ITC; MicroCal iTC200, 25 °C, 20 mM sodium phosphate pH 7.40, 150 mM NaCl
[2] = biological target: C. milii CBP NCBD domain, Trp variant (C_milli_NCBD 2031-2089) (Callorhinchus milii); experiment: stopped-flow spectroscopy; Trp variant of NCBD of the same species mixed with CID or N-CID-C; kon from the slope of kobs against CID concentration; koff from displacement of the complex by an excess of wild-type NCBD (average of three experiments); Kd = koff/kon; 20 mM sodium phosphate pH 7.40, 150 mM NaCl, 4 °C; double exponential fit for human and C. milii NCOA3, the high kobs used for Kd
[3] = biological target: D. rerio CBP NCBD domain, Trp variant (D_rerio_NCBD 2064-2122) (Danio rerio); experiment: as above
[4] = biological target: T1, D. rerio NCBD (nuclear coactivator …)
[5] = biological target: T2, C. milii NCBD (nuclear coactivator …)
[6] = biological target: H. sapiens NCBD (nuclear coactivator binding domain of CBP), Trp variant (H. sapiens, UniProt Q92793 2058-2116, a Trp was introduced at the position corresponding to Tyr2108 in human NCBD)
[7] = biological target: B12; experiment: stopped-flow spectroscopy; Trp variant of NCBD of the same species mixed with CID or N-CID-C; kon from the slope of kobs against CID concentration; koff from displacement of the complex by an excess of wild-type NCBD (average of three experiments); Kd = koff/kon; 20 mM sodium phosphate pH 7.40, 150 mM NaCl, 4 °C; double exponential fit for human and C. milii NCOA3, the high kobs used for Kd; settings: both partners purified
[8] = biological target: T5, H. sapiens NCBD (nuclear coactivator binding domain of CBP), Trp variant (H. sapiens, UniProt Q92793 2058-2116, a Trp was introduced at the position corresponding to Tyr2108 in human NCBD); experiment: stopped-flow spectroscopy; Trp variant of NCBD mixed with CID at varied concentration; kon from the slope of kobs, koff from displacement with excess wild-type NCBD, Kd = koff/kon; 20 mM sodium phosphate pH 7.40, 150 mM NaCl, 4 °C; settings: both partners purified
T5 construct: Gly-Ser remains at the N-terminus after thrombin cleavage; also called human NCBD; Trp variant of NCBD; source: expression construct ordered from Genscript; not shown: 6 His-tagged lipo domain, N-terminal, cleaved

[9] = biological target: T3, S. purpuratus NCOA N-CID-C (CID with N- …); experiment: ITC; MicroCal iTC200, 25 °C, 20 mM sodium phosphate pH 7.40, 150 mM NaCl; settings: both partners purified
[10] = biological target: T4, H. sapiens NCOA1 N-CID-C …; experiment: stopped-flow spectroscopy; Trp variant of NCBD of the same species mixed with CID or N-CID-C; kon from the slope of kobs against CID concentration; koff from displacement of the complex by an excess of wild-type NCBD (average of three experiments); Kd = koff/kon; 20 mM sodium phosphate pH 7.40, 150 mM NaCl, 4 °C; double exponential fit for human and C. milii NCOA3, the high kobs used for Kd; settings: both partners purified

Molecule | Kd [3] | koff [3] | Kd [4] | also measured
S. purpuratus NCOA CID (minimal region) (domain or fragment) |  |  |  | Kd [1]: 5000 nM
C. milii NCOA3 CID (C_milli_NCOA3_CID_1076-1117) (domain or fragment) |  |  |  | Kd [2]: 260 nM; koff [2]: 6.53 s⁻¹
C. milii NCOA3 N-CID-C (C_milli_NCOA3_N-CID-C_1037-1156) (domain or fragment) |  |  |  | Kd [2]: 88 nM; koff [2]: 3.78 s⁻¹
B1 | 44.1 nM | 1.54 s⁻¹ | 44 nM | 
B2 | 81.9 nM | 3.51 s⁻¹ | 82 nM | 
B3 | 146 nM | 5.06 s⁻¹ | 150 nM | 
B4 | 168 nM | 5.34 s⁻¹ | 170 nM | 
B5 | 300 nM | 7.29 s⁻¹ | 300 nM | 
B6 | 14.7 nM | 0.716 s⁻¹ | 15 nM | 
B7 |  |  |  | Kd [5]: 260 nM
B8 |  |  |  | Kd [5]: 88 nM
B9 |  |  |  | Kd [6]: 56 nM; Kd [7]: 55.7 nM; koff [7]: 1.59 ± 0.153 s⁻¹
B10 |  |  |  | Kd [6]: 6 nM; fold increase in affinity with flanking regions against the CID without them [8]: 9 fold
B11 |  |  |  | Kd [9]: 8000 nM
B12 |  |  |  | Kd [10]: 6.02 nM; koff [10]: 0.436 ± 0.0476 s⁻¹
